Source: patent publication US20260001953A1 (TWIST BIOSCIENCE, published 2026)

T1: SIGLEC-5 (limits assumed)
T1 construct: also called OB-BP-2
T1 receptor: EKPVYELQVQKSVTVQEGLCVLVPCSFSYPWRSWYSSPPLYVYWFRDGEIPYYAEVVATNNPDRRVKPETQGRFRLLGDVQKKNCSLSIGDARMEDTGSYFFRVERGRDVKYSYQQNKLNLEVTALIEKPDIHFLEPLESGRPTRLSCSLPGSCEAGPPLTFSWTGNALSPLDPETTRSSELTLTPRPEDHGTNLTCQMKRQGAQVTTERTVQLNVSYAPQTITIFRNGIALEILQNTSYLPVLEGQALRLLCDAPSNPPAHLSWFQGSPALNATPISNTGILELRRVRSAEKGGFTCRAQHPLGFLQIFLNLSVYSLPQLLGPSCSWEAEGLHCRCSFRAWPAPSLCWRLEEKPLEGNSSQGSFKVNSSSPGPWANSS

T2: mouse CD117 (mouse, UniProt P05532)
T2 construct: antigen of the Carterra SPR kinetics; also called murine CD117
T2 sequence (receptor, looked up): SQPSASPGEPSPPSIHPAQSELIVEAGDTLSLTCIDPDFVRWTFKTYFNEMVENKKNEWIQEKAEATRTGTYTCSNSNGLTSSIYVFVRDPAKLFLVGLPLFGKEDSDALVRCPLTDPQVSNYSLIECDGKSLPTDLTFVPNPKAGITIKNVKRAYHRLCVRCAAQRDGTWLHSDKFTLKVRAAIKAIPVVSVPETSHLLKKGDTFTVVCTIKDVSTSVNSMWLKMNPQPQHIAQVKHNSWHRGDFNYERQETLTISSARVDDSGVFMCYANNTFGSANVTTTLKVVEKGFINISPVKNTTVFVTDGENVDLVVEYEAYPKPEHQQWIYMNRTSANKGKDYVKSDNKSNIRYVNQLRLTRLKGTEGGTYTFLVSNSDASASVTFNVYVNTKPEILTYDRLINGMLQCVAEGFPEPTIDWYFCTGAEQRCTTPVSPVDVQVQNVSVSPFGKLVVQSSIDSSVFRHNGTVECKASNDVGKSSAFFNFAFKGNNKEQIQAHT


Columns and labels:
[1] = target: CD117-GFP transiently overexpressed in HEK293T cells (UniProt P10721 26-976); assay: cell-based or functional assay
[2] = target: T3, CD117 transiently expressed on Expi293 cells (UniProt P10721 26-976, limits assumed); assay: FACS cell binding, Expi293 transiently expressing CD117
T3 construct: whole, on cells; Two cassettes are described (P2A mVenus and direct mVenus fusion); also called CD117 transient cells; the transient cell line

[3] = target: T4, Sialic acid-binding immunoglobulin-like lectin 8 (SIGLEC-8), antigen of the Carterra SPR studies (UniProt Q9NYZ4 17-363, limits assumed); assay: Carterra SPR
Method in brief: (§1)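 Binding kinetics of antibodies to SIGLEC-8 were measured by surface plasmon resonance on a Carterra instrument. The antibodies came from synthetic antibody libraries panned over four rounds with a bead-based strategy and screened by clonal ELISA. Selected clones were expressed and purified before testing. The read-outs are rate constants, dissociation constants or results from these kinetic runs.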

[4] = target: T5, SIGLEC-8 transiently expressed on cells (UniProt Q9NYZ4 17-499, limits assumed); assay: cell binding titration, transient SIGLEC-8 line
T5 construct: whole, on cells; Two cassettes are described (P2A mVenus and direct mVenus fusion); also called the transient line; pTT5-SIGLEC-8 P2A mVenus

SIGLEC-3 = target: T6, SIGLEC-3; assay: SPR cross-reactivity table
T6 construct: also called CD33
Method in brief: (§2)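 Values are dissociation constants or binding results, one per protein tested, from surface plasmon resonance run on a Carterra instrument. The antibodies, raised against SIGLEC-8, were assessed for cross-reactivity with related SIGLEC proteins. They had been selected from synthetic libraries over four rounds of bead-based panning, screened by clonal ELISA, then expressed and purified.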

SIGLEC-2 = target: T7, SIGLEC-2; assay: SPR cross-reactivity table
T7 construct: also called CD22
Method in brief: as §2

SIGLEC-5 = target: T1, SIGLEC-5; assay: SPR cross-reactivity table
Method in brief: as §2

SIGLEC-6 = target: T8, SIGLEC-6; assay: SPR cross-reactivity table
T8 construct: also called OB-BP-1
Method in brief: as §2

SIGLEC-7 = target: T9, SIGLEC-7; assay: SPR cross-reactivity table
T9 construct: also called p75/AIRM1
Method in brief: as §2

[5] = target: T4, Sialic acid-binding immunoglobulin-like …; assay: Carterra SPR kinetics, summary table
Method in brief: as §1

cyno CD117 = target: T10, cyno CD117 (Macaca fascicularis, UniProt A0A7N9CP24); assay: Carterra SPR, cyno CD117
T10 construct: antigen of the Carterra SPR kinetics; also called cynomolgus monkey CD117
Experimental: (§3) To further evaluate the antibodies discovered during the screens, 21 clones were selected for detailed characterization and were analyzed for target binding kinetics by a Carterra SPR instrument. The binding kinetics of the anti-CD117 antibodies for human CD117, cynomolgus monkey CD117, and murine CD117 are shown in FIG. 29A-29B.

[6] = target: T11, Cluster of differentiation 117 (CD117), antigen of epitope binning and ELISA (UniProt P10721 26-520, limits assumed); assay: Carterra SPR, human CD117
T11 construct: also called tyrosine-protein kinase KIT; mast/stem cell growth factor receptor (SCFR)
Experimental: as §3

[7] = target: T3, CD117 transiently expressed on Expi293 …; assay: FACS, MFI expressing / parental cells
mouse CD117 = target: T2, mouse CD117; assay: Carterra SPR, mouse CD117
Experimental: as §3

T8 sequence (receptor, as listed by the source limits assumed): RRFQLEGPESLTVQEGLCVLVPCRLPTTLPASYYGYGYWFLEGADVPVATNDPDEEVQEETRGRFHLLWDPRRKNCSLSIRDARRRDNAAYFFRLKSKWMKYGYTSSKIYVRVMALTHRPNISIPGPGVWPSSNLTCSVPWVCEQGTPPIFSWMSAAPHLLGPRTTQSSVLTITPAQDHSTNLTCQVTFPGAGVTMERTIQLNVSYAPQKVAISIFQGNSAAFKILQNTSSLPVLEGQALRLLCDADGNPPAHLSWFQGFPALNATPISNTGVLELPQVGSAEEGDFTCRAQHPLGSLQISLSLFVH
T7 sequence (chain, as listed by the source limits assumed): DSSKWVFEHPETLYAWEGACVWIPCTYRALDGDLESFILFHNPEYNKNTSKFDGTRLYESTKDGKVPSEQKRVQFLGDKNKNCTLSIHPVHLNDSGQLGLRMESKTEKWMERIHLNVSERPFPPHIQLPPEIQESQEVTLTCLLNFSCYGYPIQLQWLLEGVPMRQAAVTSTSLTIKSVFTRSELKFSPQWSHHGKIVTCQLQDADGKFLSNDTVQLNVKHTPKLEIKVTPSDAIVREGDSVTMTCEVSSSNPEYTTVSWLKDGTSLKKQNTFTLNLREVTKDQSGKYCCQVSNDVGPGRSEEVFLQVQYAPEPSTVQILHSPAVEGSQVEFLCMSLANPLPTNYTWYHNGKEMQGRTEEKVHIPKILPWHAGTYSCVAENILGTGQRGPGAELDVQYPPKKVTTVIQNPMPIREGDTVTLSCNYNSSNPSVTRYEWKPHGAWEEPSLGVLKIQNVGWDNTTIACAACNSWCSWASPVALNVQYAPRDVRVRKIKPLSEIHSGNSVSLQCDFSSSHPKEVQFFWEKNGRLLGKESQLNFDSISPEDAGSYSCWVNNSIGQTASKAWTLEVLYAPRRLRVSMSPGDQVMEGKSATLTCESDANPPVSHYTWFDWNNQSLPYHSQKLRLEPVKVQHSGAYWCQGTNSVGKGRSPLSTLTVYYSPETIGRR
T6 sequence (receptor, as listed by the source limits assumed): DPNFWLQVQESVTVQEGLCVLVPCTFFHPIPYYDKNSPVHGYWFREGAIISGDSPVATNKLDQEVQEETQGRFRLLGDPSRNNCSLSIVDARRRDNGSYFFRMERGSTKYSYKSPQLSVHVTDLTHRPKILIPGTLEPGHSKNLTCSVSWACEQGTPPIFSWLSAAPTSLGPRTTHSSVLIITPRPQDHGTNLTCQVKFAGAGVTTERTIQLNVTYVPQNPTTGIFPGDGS
T9 sequence (receptor, as listed by the source limits assumed): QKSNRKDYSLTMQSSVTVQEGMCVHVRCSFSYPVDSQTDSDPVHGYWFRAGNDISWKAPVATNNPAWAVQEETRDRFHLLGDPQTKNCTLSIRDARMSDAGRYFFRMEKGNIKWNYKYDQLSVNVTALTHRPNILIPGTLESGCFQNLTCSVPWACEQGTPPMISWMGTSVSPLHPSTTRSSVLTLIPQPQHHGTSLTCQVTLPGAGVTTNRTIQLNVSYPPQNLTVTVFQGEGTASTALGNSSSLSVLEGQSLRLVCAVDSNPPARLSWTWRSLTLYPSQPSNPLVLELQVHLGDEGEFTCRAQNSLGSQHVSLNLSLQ
T3 sequence (P10721 26-976 limits assumed): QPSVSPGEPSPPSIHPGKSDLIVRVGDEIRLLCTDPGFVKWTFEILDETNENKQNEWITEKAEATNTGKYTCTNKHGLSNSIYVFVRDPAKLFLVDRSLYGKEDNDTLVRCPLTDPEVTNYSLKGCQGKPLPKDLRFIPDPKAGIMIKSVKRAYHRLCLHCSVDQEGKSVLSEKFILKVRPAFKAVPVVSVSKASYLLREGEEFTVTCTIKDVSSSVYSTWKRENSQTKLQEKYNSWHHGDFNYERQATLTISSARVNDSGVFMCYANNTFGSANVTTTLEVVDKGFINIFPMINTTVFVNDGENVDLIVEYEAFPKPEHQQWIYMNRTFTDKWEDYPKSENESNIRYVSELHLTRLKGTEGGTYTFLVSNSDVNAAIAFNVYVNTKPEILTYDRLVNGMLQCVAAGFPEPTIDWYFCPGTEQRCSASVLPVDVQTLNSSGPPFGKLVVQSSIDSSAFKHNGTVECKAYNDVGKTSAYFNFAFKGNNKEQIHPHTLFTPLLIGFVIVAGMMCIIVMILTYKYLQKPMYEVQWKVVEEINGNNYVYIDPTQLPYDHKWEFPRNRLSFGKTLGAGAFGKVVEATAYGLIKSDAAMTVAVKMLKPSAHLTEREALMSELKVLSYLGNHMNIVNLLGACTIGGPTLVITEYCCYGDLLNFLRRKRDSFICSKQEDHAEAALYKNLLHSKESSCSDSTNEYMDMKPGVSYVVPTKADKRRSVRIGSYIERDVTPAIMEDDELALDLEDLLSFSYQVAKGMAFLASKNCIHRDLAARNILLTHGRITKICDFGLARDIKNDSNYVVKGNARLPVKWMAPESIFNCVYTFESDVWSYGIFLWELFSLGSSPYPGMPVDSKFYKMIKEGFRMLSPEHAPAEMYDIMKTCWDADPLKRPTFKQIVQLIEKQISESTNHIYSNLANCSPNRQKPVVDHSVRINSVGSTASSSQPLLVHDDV
T11 sequence (P10721 26-520 limits assumed): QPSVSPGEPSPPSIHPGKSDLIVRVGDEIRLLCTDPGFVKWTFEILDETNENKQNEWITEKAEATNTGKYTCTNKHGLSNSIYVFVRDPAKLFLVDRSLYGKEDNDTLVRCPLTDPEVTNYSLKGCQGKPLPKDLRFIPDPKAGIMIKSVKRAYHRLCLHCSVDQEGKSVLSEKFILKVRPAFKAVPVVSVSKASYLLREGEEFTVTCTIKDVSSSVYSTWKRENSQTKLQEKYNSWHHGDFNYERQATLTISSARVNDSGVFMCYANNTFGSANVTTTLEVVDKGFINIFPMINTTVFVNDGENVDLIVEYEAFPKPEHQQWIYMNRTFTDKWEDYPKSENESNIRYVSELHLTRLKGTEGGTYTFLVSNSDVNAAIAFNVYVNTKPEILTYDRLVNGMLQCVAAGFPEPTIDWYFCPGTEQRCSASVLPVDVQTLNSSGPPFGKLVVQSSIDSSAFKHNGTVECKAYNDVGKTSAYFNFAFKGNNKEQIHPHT
T10 sequence (A0A7N9CP24 entry or part of it): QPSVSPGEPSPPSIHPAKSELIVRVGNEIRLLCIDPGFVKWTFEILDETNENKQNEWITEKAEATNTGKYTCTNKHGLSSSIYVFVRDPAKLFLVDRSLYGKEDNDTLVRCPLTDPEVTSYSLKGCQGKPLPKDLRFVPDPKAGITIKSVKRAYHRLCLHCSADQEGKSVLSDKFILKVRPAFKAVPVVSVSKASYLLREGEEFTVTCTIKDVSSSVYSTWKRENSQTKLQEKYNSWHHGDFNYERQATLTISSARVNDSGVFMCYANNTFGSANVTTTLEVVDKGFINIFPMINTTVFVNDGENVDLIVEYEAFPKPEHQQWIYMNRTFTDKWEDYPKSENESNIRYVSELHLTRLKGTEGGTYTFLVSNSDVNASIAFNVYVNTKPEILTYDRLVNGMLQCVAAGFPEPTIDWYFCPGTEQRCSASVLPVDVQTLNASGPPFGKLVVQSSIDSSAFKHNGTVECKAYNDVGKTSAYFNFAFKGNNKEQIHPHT
T5 sequence (Q9NYZ4 17-499 limits assumed): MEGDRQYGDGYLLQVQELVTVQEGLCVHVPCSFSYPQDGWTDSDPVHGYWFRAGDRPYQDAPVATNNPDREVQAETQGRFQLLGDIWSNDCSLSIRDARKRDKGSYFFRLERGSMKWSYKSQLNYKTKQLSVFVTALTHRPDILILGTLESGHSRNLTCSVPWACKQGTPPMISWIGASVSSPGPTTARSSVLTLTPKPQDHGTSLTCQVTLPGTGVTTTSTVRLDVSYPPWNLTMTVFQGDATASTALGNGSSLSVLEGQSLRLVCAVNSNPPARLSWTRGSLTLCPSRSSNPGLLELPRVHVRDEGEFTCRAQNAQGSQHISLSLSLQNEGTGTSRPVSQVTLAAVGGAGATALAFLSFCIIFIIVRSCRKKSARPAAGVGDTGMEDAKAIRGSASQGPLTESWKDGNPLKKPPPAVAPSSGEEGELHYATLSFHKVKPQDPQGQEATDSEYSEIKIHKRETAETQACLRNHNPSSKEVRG
T4 sequence (Q9NYZ4 17-363 limits assumed): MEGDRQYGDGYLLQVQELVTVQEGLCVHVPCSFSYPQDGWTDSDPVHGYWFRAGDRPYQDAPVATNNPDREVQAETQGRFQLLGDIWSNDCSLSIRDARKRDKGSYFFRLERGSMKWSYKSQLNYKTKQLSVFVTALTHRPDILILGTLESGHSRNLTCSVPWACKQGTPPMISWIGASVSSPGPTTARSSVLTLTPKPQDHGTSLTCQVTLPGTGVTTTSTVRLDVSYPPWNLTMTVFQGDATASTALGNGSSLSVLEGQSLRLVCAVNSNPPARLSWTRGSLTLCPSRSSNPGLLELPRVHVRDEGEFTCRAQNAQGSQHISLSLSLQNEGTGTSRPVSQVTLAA

EC50 [2] [nM]	Kd [3] [nM]	EC50 [4] [nM]	binding result (SIGLEC-3)	binding result (SIGLEC-6)	binding result (SIGLEC-7)	koff [5] [s⁻¹]	kon [5] [M⁻¹ s⁻¹]	binding result (SIGLEC-2)	Kd (SIGLEC-5) [nM]	Kd (SIGLEC-6) [nM]	Binder	also measured
0.116											CD117-6 (antibody, human IgG1, kappa, V domains shown, detected with anti-human IgG in FACS) VH: EVQLLESGGGLVQPGGSLRLSCAASGFTFSAYALTWVRQAPGKGLEWVSAISSSGGSTFYADSVKGRFTISRDNSKNTLYLQMNSLRAEDTAVYYCARVSRGYPRRSDSWGQGTLVTVSS VL: DIQMTQSPSSLSASVGDRVTTTCRASQGISTYLNWYQQKPGKAPKLLIYGASRLQGGVPSRFSGSGSGTDFTLTISSLQPEDFATYYCQQGYSFPWTFGGGTKVEIKR	IC50, inhibition of the SCF-stimulated SRF reporter signal (FFLuc/RLuc); same row prints log(IC50) -8.147 and Span -0.2026 [1]: 7.13e-09 M
	336	12.3	no binding	no binding	no binding						SIGLEC-8-48 (antibody, human IgG1, kappa, V domains shown, tested as expressed and purified mAb) VH: EVQLLESGGGLVQPGGSLRLSCAASGFNFRSYAMSWVRQAPGKGLEWVSGISGSGGSAYYADSVKGRFTISRDNSKNTLYLQMNSLRAEDTAVYYCAREGYNWAVDYWGQGTLVTVSS VL: DIQMTQSPSSLSASVGDRVTITCRASQSISGFLNWYQQKPGKAPKLLIYGASILQSGVPSRFSGSGSGTDFTLTISSLQPEDFATYYCQQTYSTPRSFGGGTKVEIKR	Kd (SIGLEC-2): 629 nM; binding result (SIGLEC-5): no binding
	0.217	2.19	no binding	no binding	no binding	7.23e-05	334000	no binding	29.7		SIGLEC-8-11 (antibody, human IgG1, kappa, V domains shown, tested as expressed and purified mAb) VH: EVQLLESGGGLVQPGGSLRLSCAASGLTFSNYDMSWVRQAPGKGLEWVSAISTSGGGSGGSTYYADSVKGRFTISRDNSKNTLYLQMNSLRAEDTAVYYCAREANNYYYGMDVWGQGTLVTVSS VL: DIQMTQSPSSLSASVGDRVTITCRASQTISSYLHWYQQKPGKAPKLLIYAASSLHTGVPSRFSGSGSGTDFTLTISSLQPEDFATYYCQQSSSTPLTFGGGTKVEIKR	
	0.97	0.914	no binding	no binding	no binding	0.000127	131000	no binding	169		SIGLEC-8-58 (antibody, human IgG1, kappa, V domains shown, tested as expressed and purified mAb) VH: EVQLLESGGGLVQPGGSLRLSCAASGFTFRTSAMSWVRQAPGKGLEWVSSVSGSGSSTYYADSVKGRFTISRDNSKNTLYLQMNSLRAEDTAVYYCAKEGSYYYYGMDVWGQGTLVTVSS VL: DIQMTQSPSSLSASVGDRVTITCRASQTIGRYLNWYQQKPGKAPKLLIYGASSLYSGVPSRFSGSGSGTDFTLTISSLQPEDFATYYCQQSYKTPVTFGGGTKVEIKR	
23.8											CD117-1 (antibody, human IgG1, kappa, V domains shown, detected with anti-human IgG in FACS) VH: EVQLLESGGGLVQPGGSLRLSCAASGFTLTSYAMSWVRQAPGKGLEWVSTISGSGGYTYYADSVKGRFTISRDNSKNTLYLQMNSLRAEDTAVYYCARDSGYDRGLDYWGQGTLVTVSS VL: DIQMTQSPSSLSASVGDRVTITCRASQSVRTYLNWYQQKPGKAPKLLIYDASTLQSGVPSRFSGSGSGTDFTLTISSLQPEDFATYYCQQSYSSSITFGGGTKVEIKR	Kd (cyno CD117): 508 nM; koff (cyno CD117): 0.16 s⁻¹; kon (cyno CD117): 315000 M⁻¹ s⁻¹; IC50, inhibition of the SCF-stimulated SRF reporter signal (FFLuc/RLuc); same row prints log(IC50) -9.366 and Span -0.2174 [1]: 4.31e-10 M; Kd [6]: 189 nM; koff [6]: 0.1 s⁻¹; kon [6]: 530000 M⁻¹ s⁻¹; MFI Ratio [7]: 26.6; binding result (mouse CD117): no binding
	990	1.73	no binding		no binding			no binding	28.3	9.6	SIGLEC-8-57 (antibody, human IgG1, kappa, V domains shown, tested as expressed and purified mAb) VH: EVQLLESGGGLVQPGGSLRLSCAASGFAFSRYAMSWVRQAPGKGLEWVSGISGSGGRTHYADSVKGRFTISRDNSKNTLYLQMNSLRAEDTAVYYCARQSRGGSLGMDVWGQGTLVTVSS VL: DIQMTQSPSSLSASVGDRVTITCRASQSISGYLNWYQQKPGKAPKLLIYGSSTLQSGVPSRFSGSGSGTDFTLTISSLQPEDFATYYCQQSYSPPWTFGGGTKVEIKR	
4.01											CD117-7 (antibody, human IgG1, kappa, V domains shown, detected with anti-human IgG in FACS) VH: EVQLLESGGGLVQPGGSLRLSCAASGFTFSDYAMGWVRQAPGKGLEWVSGIGGSGGSAYYADSVKGRFTISRDNSKNTLYLQMNSLRAEDTAVYYCARGFDSTDGVDYWGQGTLVTVSS VL: DIQMTQSPSSLSASVGDRVTITCRASQSIGNYLNWYQQKPGKAPKLLIYAASDLQTGVPSRFSGSGSGTDFTLTISSLQPEDFATYYCQQGYSTPYTFGGGTKVEIKR	Kd (cyno CD117): 14.2 nM; koff (cyno CD117): 0.0159 s⁻¹; kon (cyno CD117): 1.12e+06 M⁻¹ s⁻¹; IC50, inhibition of the SCF-stimulated SRF reporter signal (FFLuc/RLuc); same row prints log(IC50) -9.451 and Span -0.1049 [1]: 3.54e-10 M; Kd [6]: 22 nM; koff [6]: 0.0194 s⁻¹; kon [6]: 882000 M⁻¹ s⁻¹; MFI Ratio [7]: 21.9; binding result (mouse CD117): no binding
	0.517	1.07	no binding		no binding	0.000138	267000	no binding	6.7	35.2	SIGLEC-8-44 (antibody, human IgG1, kappa, V domains shown, tested as expressed and purified mAb) VH: EVQLLESGGGLVQPGGSLRLSCAASGFTISSSAMTWVRQAPGKGLEWVSSISGGGGTTYYADSVKGRFTISRDNSKNTLYLQMNSLRAEDTAVYYCAREGAGYYYGMDVWGQGTLVTVSS VL: DIQMTQSPSSLSASVGDRVTITCRASQSIGNYLNWYQQKPGKAPKLLIYAASRLQGGVPSRFSGSGSGTDFTLTISSLQPEDFATYYCQQSYSTPLSFGGGTKVEIKR	
	9.23	1.95			no binding				5.5	6.9	SIGLEC-8-34 (antibody, human IgG1, kappa, V domains shown, tested as expressed and purified mAb) VH: EVQLLESGGGLVQPGGSLRLSCAASGFTFSRHAMGWVRQAPGKGLEWVSSISGSGYSTYYADSVKGRFTISRDNSKNTLYLQMNSLRAEDTAVYYCARENGQYYYGMDVWGQGTLVTVSS VL: DIQMTQSPSSLSASVGDRVTITCRASQTITTYLNWYQQKPGKAPKLLIYAASHLQTGVPSRFSGSGSGTDFTLTISSLQPEDFATYYCQQSYSTPLSFGGGTKVEIKR	Kd (SIGLEC-3): 62.2 nM; Kd (SIGLEC-2): 208 nM
